The source of these data is patent US20240254205A1 (UNIVERSITY OF ROCHESTER, published 2024).

One may read the Kd as the constant that tells how readily two partners part at equilibrium. The koff is the rate constant with which the complex falls apart. For orientation: kon means a measure of how fast the partners come together. Usually EC50 (read off the curve) stands for the concentration at which the effect is half-maximal.

Assay [1] concerns the target T1, recombinant IBV NA protein B/Hong Kong/330/2001 (Victoria lineage) (influenza B virus B/Hong Kong/330/2001).
In assay [2] the target is T1, recombinant IBV NA protein B/Hong …. The assay can be described thus: surface plasmon resonance, antibody on the chip, NA flowed over.
Assay [3] shares this target. The source holds these as a separate data set.
The target is the same in assay [4]. The assay can be described thus: avidity ELISA with urea, hMAb at 1 µg/ml. Background: ELISA stands for enzyme-linked immunosorbent assay.
Assay [5] concerns the target T2, NA of B/Lee/1940 on infected MDCK cells (influenza B virus B/Lee/1940, UniProt P03474 1-466).
T2 construct: whole, on cells
As to the kind of experiment: immunofluorescence on infected MDCK cells, hMAb at 1 µg/ml.

Assay [6] addresses T2, NA of B/Lee/1940 on infected MDCK cells. As to the kind of experiment: immunofluorescence (IFA) on infected MDCK cells.

Positions count from the first letter of the chain named. Read-outs that look alike come from different tables or passages of the source.

B1: KPF2/1092D4 (antibody, V domains shown)
VH: EVQLLESGGQLVQPGGSLRLSCAVSGFTFSRYAMYWVRQAPGKGLEWVSIISGDGGVTFYADSVKGRFTISRDNSKNTLFLQMNSLRADDTAVYYCAKDNQDLDLWSGSYKGTFDDWGQGTLVTVSS
VL: NFMLTQPHSVSGSPGKTVSISCTRSSGIIASNHVQWYQQRPGSAPTTVIFEDNQRPSGVPDRFSGSIDSSSNSASLTISGLKTEDEADYYCQSYDSSRYWVFGGGTKLTVL
Consider B1, for which, in assay [1], the Kd came out at 0.185 nM, the koff worked out at 4.86e-05 s⁻¹ and the kon was 264000 M⁻¹ s⁻¹. In addition, the dissociation constant (Kd) in assay [2] amounted to 0.1 nM. Also, in assay [3], the “EC50 (read off the curve)” value is around 0.05 µg/mL. For the same molecule, in assay [4], the “binding activity maintained in 8 M urea” value was above 75%. For the same molecule, the binding result in assay [5] was “binds”.

B2: 1122C7 (antibody, V domains shown)
VH: B1 VH with R31S, A40S, F80Y, D89E, N100K, D116E
VL: B1 VL with H33Y
For the molecule B2, in assay [4], the “binding activity maintained in 8 M urea” value was above 75%. Further, the binding result in assay [5] is recorded as “binds”.

B3: 1086C12 (antibody, V domains shown)
VH: VQLVESGGGVVQPGRSLRLSCVASGFSLSTYGMLWVRQAPGKGLVWVALISYEEGSNKKYADSVKGRFTISRDNSRNTLYLQMSSLTSDDTGVYYCARDAGCDSVGYYPGRLWGQGTLVTVSS
VL: QSVLTQPPSASGTPGQTVTISCSGTSSNIGSNFVYWYQQLPGTAPKLLIFRNNQRPSGVPDRFSGSKSGTSASLAVSGLRSEDEAEYYCAAWDDSLSGHLVFGGGTKLTVL
As for B3, the “EC50 (read off the curve)” value in assay [3] is around 0.05 µg/mL. In addition, the “binding activity maintained in 8 M urea” value in assay [4] was above 75%. The binding result in assay [5] was “binds”.

B4: 1092E10 (antibody, V domains shown)
VH: EVQLVESGGGSVKPGGSLRLSCAASGFTFTNSWMSWVRQAPGKGLEWVGRIKSKSDGGTTDYAAPVKGRFSISRDDSKSTLFLQMNSLKTEDTAVYYCSAAPFTESNGYKSWDYLYGMDVWGQGTTVTVSS
VL: SYELTQPPSVSVSPGQTATITCSGDKLGDKFASWYQQQPGQSPVLVIYQHTKRPSGIPERFSGSISGSTATLTISGTQAVDEADYYCQAWDSNSYVFGAGTKVTVL
notes: also called 1092E01
With B4, in assay [3], the “EC50 (read off the curve)” value was around 0.05 µg/mL. The “binding activity maintained in 8 M urea” value in assay [4] was above 75%. For the same molecule, the binding result in assay [5] is listed as “binds”.

B5: 1122C6 (antibody, V domains shown)
VH: QVQLQESGPGLVKPSETLSLTCTVSGGSISSYYWSWIRQPPGKAVEWIGYIFDGGSTDYNPSLKSRVAMSVDASENQFSLKLASVTAADTAVYYCARYRVSGNYYDTPWFDPWGQGLLVTVSS
VL: SYELTQPPSLSASPGQTARITCSGDALPKQDVYWYQQKPGQAPLLVIYKDTERPSGIPERFSGSRSGTTVTLIISGVQAEDEADYYCQSAASSYGYVVFGGGTKLTVL
For the molecule B5, the binding result in assay [6] is reported as “no binding (tested: 1 µg/ml)”.
